Experimental findings from patent US10300107B2, “Compositions and methods for CaMKII inhibitors and uses thereof” (THE REGENTS OF THE UNIVERSITY OF COLORADO, priority 2007, dated 2019) are described below.

Assay [1] concerns the target T1, CaM dissociation from CaMKII (Homo sapiens, UniProt Q9UQM7).
T1 construct: made in house; host or cells: baculovirus/Sf9 cells (CaMKII)
The assay is described as follows: TA-CaM dissociation from CaMKII. Type of assay: binding. The settings on record: 5 μM; 150 nM CaMKII, 30 nM TA-CaM. The protocol:
TA-CaM dissociation was assessed by increased TA-CaM (30 nM) fluorescence after dissociation from CaMKII or its CaM-binding domain (CBD) (150 nM) during a chase with unlabeled CaM (60 μM). Buffer contained 50 mM Hepes pH 7.4, 150 mM KCl, 2 mM MgCl2, 2 mM MgADP, 2 mM CaCl2, and 0.1 mg/ml BSA. Fluorescence was measured in a time scan (1 sec samples) at 365 nm excitation and 415 nm emission wavelength on a spectro-fluorometer (Fluorolog3; Horiba Jobin Yvon) and was corrected for photobleach (FIG. 16).

Assay [2] deals with CaMKII T-site mutants W237R and 1205K. The experiment in a line: Kinase assay with GFP-CaMKIIα T-site mutants. To be noted: substrate syntide2. Type of assay: biochemical. An excerpt:
In another example, FIG. 3. […] FIG. 3A represents a model of CaMKII kinase domain (Rosenberg et al., 2005) with the substrate binding S-site (indicated), the T286-region binding T-site (indicated), and the regulatory region (shown as ribbon). The arrow indicates the proposed orientation of CN21a binding to the T-site, when the regulatory region is displaced after activation. […] Results are normalized to maximal kinase activity without inhibitor. Error bars show s.e.m. […] Bound CaMKII was eluted and detected by Western blot.
CaMKII activity assays. Standard CaMKII assays were done for 1 min at 30° C. previously described, with 20 nM CaMKII (subunit, not holoenzyme concentration), 50 mM PIPES pH 7.2, 0.1 mg/ml BSA, 10 mM MgCl2, 100 μM [γ-^32P] ATP (˜1 Ci/mmol), 1 mM CaCl2, 1-2 μM CaM, and 30-60 μM AC2 peptide (or syntide2). The reactions were spotted onto Whatman P81 phosphocellulose paper rectangles (˜2×2.5 cm). To remove free radioactivity, the paper rectangles were rinsed and washed for 30 min under agitation in 0.5% phosphoric acid or water. […] Radioactivity of the bound peptides was quantified in a Beckman 6000TA scintillation counter by the Cherenkov method. Any changes of the standard protocol were done as indicated. For assays of the GFP-CaMKIIα mutants, kinase amounts were normalized by GFP fluorescence in the extract, and total protein was adjusted with Cos-7 extracts.

B1: CaM-KIIN: natural CaMKII inhibitor protein expressed in brain (protein, UniProt Q7Z7J9 1-78, looked up)
Calcium/calmodulin-dependent …: MSEVLPYGDEKLSPYGDGGDVGQIFSCRLQDTNNFFGAGQNKRPPKLGQIGRSKRVVIEDDRIDDVLKNMTDKAPPGV
As for B1, in assay [1], the “CaM dissociation from CaMKII” value is on record as “slowed down CaM dissociation from CaMKII”. The “activity of CaMKII T-site mutants W237R and 1205K compared to GFP-CaMKIIα wild type” value in assay [2] was “significantly less affected”.
